Our source for the Kd, fold stabilization with 22 (against DMSO) and fold stabilization with 23 (against DMSO) values is paper PMC12903857.

Assay [1] has as its target 15-mer A-RAF peptide. The assay can be described thus: fluorescence polarisation; fluorescence anisotropy protein titration: 14-3-3σ titrated into 10 nM labeled peptide in the presence of DMSO; apparent. (In general: Polarisation of emitted light reports the rotation of a fluorescent probe.)
In assay [2] the target is 15-mer B-RAF peptide. The assay can be described thus: fluorescence polarisation; fluorescence anisotropy protein titration: 14-3-3σ titrated into 10 nM labeled peptide in the presence of a saturating concentration (100 μM) of a covalent compound, which is named in the quantity of each row; apparent.
The target in assay [3] is 15-mer A-RAF peptide. The assay can be described thus: fluorescence polarisation; fluorescence anisotropy; Kd of the 15-mer peptides, told apart by the paper from the appKd in the presence of DMSO.

Take “14-3-3σ (from UniProt P31947 1-248) (natural protein)”: the Kd in assay [1] came out at 3 µM. Moreover, in assay [2], the fold stabilization with 22 (against DMSO) amounted to 448 fold and the fold stabilization with 23 (against DMSO) was 448 fold. In addition, the Kd in assay [3] came to 8 µM.
